Substrate: COc1ccc(O[C@H]2S[C@H](CO)[C@@H](O)[C@H](O)[C@H]2NC(C)=O)cc1
Test: OGA kinetics, Michaelis-Menten hydrolysis of pMP glycosides
Assay type: biochemical, human
Details: other: 37° C., pH 7.4
Description: OGA kinetics: Synthesis and characterization of para-methoxyphenyl-5SGlcNAc is described in Example II. Kinetics were performed at 37° C. in PBS, pH 7.4 in a total volume of […]. Substrate concentrations of 25 μM to 1.5 mM were used for pMP-GlcNAc and 25 to 800 μM for pMP-5SGlcNAc. OGA (which was over-expressed and purified as described in Ref. ^42) was used at a concentration of 1 μM for pMP-GlcNAc and 3.6 μM for pMP-5SGlcNAc. Rates were monitored at a wavelength of 296 nm over the course of 10-20 min. Data were fit to the Michaelis-Menten equation in GRAFIT^41 and the kcat and KM values determined.

B1: OGA (Homo sapiens) (protein)
chain: MVQKESQATLEERESELSSNPAASAGASLEPPAAPAPGEDNPAGAGGAAVAGAAGGARRFLCGVVEGFYGRPWVMEQRKELFRRLQKWELNTYLYAPKDDYKHRMFWREMYSVEEAEQLMTLISAAREYEIEFIYAISPGLDITFSNPKEVSTLKRKLDQVSQFGCRSFALLFDDIDHNMCAADKEVFSSFAHAQVSITNEIYQYLGEPETFLFCPTEYCGTFCYPNVSQSPYLRTVGEKLLPGIEVLWTGPKVVSKEIPVESIEEVSKIIKRAPVIWDNIHANDYDQKRLFLGPYKGRSTELIPRLKGVLTNPNCEFEANYVAIHTLATWYKSNMNGVRKDVVMTDSEDSTVSIQIKLENEGSDEDIETDVLYSPQMALKLALTEWLQEFGVPHQYSSRQVAHSGAKASVVDGTPLVAAPSLNATTVVTTVYQEPIMSQGAALSGEPTTLTKEEEKKQPDEEPMDMVVEKQEETDHKNDNQILSEIVEAKMAEELKPMDTDKESIAESKSPEMSMQEDCISDIAPMQTDEQTNKEQFVPGPNEKPLYTAEPVTLEDLQLLADLFYLPYEHGPKGAQMLREFQWLRANSSVVSVNCKGKDSEKIEEWRSRAAKFEEMCGLVMGMFTRLSNCANRTILYDMYSYVWDIKSIMSMVKSFVQWLGCRSHSSAQFLIGDQEPWAFRGGLAGEFQRLLPIDGANDLFFQPPPLTPTSKVYTIRPYFPKDEASVYKICREMYDDGVGLPFQSQPDLIGDKLVGGLLSLSLDYCFVLEDEDGICGYALGTVDVTPFIKKCKISWIPFMQEKYTKPNGDKELSEAEKIMLSFHEEQEVLPETFLANFPSLIKMDIHKKVTDPSVAKSMMACLLSSLKANGSRGAFCEVRPDDKRILEFYSKLGCFEIAKMEGFPKDVVILGRSL
notes: made in house
Q: How did the Km turn out when B1 was run?
A: 35 µM

— patent publication US20150259371A1, “METHODS AND COMPOUNDS FOR INHIBITING GLYCOSYLTRANSFERASES” (SIMON FRASER UNIVERSITY, priority 2010, published 2015)
